Measurements: PMC4223078
Where a chain is given by its changes, count along the chain named.

Legend:
Assay in all cases: EMSA
Details in all cases: 10 nM DNA in 15 mM HEPES pH 7.9, 40 mM KCl, 1 mM EDTA, 0.5% DTT, 5% glycerol, 30 min (incubation temperature not stated); 6% native PAGE in TAE at 4 C, SYBR …
[1] = molecular target: T1, H-NS (6His) (Salmonella enterica serovar Typhimurium 14028s?) (UniProt A0A0F6B244)
T1 sequence: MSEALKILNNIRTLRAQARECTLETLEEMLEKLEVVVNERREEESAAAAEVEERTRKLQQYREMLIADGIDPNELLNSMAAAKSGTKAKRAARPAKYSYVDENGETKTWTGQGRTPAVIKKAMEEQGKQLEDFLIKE

[2] = molecular target: T2, StpA A77D A77D (Salmonella enterica serovar Typhimurium 14028s) (UniProt A0A0F6B5K2)
T2 sequence: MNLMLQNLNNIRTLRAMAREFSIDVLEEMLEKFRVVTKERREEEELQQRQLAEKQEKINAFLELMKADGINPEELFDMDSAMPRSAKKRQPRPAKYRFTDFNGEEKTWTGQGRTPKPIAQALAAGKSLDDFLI

[3] = molecular target: T3, StpA M4T M4T (Salmonella enterica serovar Typhimurium 14028s) (UniProt A0A0F6B5K2)
T3 sequence: T2 sequence with M4T, D77A

[4] = molecular target: T4, StpA T37I T37I (Salmonella enterica serovar Typhimurium 14028s) (UniProt A0A0F6B5K2)
T4 sequence: T2 sequence with T37I, D77A

[5] = molecular target: T5, StpA WT (Salmonella enterica serovar Typhimurium 14028s) (UniProt A0A0F6B5K2)
T5 sequence: T2 sequence with D77A

Measured: binding

CTCTCTCTGCACCAGGATATACGGCAGCGTCCATTCGATAATCACAGTTAGTTATAACAATATTATTACCAACATGTCAGTTATTTAAAGCACAGGCATAAGCTAAATAATCAAATGTTAAAAACATATAAACCCGAGCCCGTAGAATATGACATTAAGCTCATAATAAAAGCTCAACCTGACCGTTAGTACTAACAGCAGAATTACTGAAACAGTAGATTCTATCCTAACGACTTGTATTAGTTATTATAACTTTTCACCCTGTAAGAGAATACACTATTATCATGCC (double strand) [hilA 289 bp fragment]
binds: all assays above
